Results from publication PMC11088064 (2024).

B1: His-tagged mPD-1 (PD1-M5228, ACRO Biosystem) (receptor)
chain: LEVPNGPWRSLTFYPAWLTVSEGANATFTCSLSNWSEDLMLNWNRLSPSNQTEKQAAFCNGLSQPVQDARFQIIQLPNRHDFHMNILDTRRNDSGIYLCGAISLHPKAKIEESPGAELVVTERILETSTRYPSPSPKPEGRFQGM
B2: GNUV201 (antibody, V domains shown)
VH: QVQLVQSGAEVKKPGASVKVSCKASGYTFTGYWMHWVRQAPGQGLEWIGMIHPNSDTTTYNEKFKNRVTMTRDTSISTAYMELSRLRSDDTAVYYCAGTDQAAWFAFWGQGTTVTVSS
VL: DIVMTQTPLSLSVTPGQPASISCRSSQNIVHSQGDTYLEWYLQKPGQSPQLLIYKVSKRFSGVPDRFSGSGSGTDFTLKISRVEAEDVGVYYCFQGSHVPWTFGGGTKVEIK

Key:
[1] = biological target: RMP1-14; test: SPR; pH 7.4
[2] = biological target: RMP1-14; test: SPR; pH 6.0
[3] = biological target: T1, hPD-1 (PD-1-H5221, ACRO Biosystems) (human, UniProt Q15116 25-170); test: SPR; pH 6.0
[4] = biological target: B1; test: SPR; pH 6.0
[5] = biological target: B1; test: SPR; pH 6.0
[6] = biological target: T1, hPD-1 (PD-1-H5221, ACRO Biosystems); test: SPR; pH 7.4
[7] = biological target: B1; test: SPR; pH 7.4
[8] = biological target: T1, hPD-1 (PD-1-H5221, ACRO Biosystems); test: SPR; pH 7.4; remark: listed apart in the source
[9] = biological target: B1; test: SPR; pH 7.4

T1 sequence (Q15116 25-170): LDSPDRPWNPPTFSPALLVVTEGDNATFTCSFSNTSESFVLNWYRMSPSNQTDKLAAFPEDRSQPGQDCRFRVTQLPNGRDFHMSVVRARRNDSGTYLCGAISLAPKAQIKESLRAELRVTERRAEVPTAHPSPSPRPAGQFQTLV

Row | Kd [1] [nM] | koff [1] [s⁻¹] | Kd [2] [nM] | koff [2] [s⁻¹] | koff [3] [s⁻¹] | koff [4] [s⁻¹] | Kd [5] [nM] | Kd [6] [nM] | Kd [7] [nM] | koff [8] [s⁻¹] | koff [9] [s⁻¹] | Binder
1 | 2.43 | 0.00028 | 2.88 | 0.00025 | – | – | – | – | – | – | – | B1
2 | – | – | – | – | 3e-05 | 5e-05 | 0.18 | 0.41 | 0.38 | 6e-05 | 9e-05 | B2
